Experimental data: patent US20240124607A1 (Merck Sharp & Dohme, published 2024)

Assays:
CEACAM5 Nterm IgV-His = target: T1, CEACAM5 Nterm IgV-His (human, UniProt P06731 35-144); experiment: SPR, hFc capt, 37C
T1 construct: also called N-term domain of hCEACAM5
T1 sequence: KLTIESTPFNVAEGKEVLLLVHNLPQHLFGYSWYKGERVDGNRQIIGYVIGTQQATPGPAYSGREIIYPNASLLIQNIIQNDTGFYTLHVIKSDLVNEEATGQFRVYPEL
Method: (§1) The various hCEACAM5 protein domains were titrated over the captured antibody at 50 μL/min for 180 sec of association and 300 sec of dissociation. The assay was run at 37° C. in HBS-EP+ running buffer, pH 7.4. The surface of the CM5 chip was regenerated using 3M MgCl₂.

CEACAM5 N-A1-B1-His = target: T2, CEACAM5 N-A1-B1-His (human, UniProt P06731 35-322, limits assumed); experiment: SPR, hFc capt, 37C
T2 sequence: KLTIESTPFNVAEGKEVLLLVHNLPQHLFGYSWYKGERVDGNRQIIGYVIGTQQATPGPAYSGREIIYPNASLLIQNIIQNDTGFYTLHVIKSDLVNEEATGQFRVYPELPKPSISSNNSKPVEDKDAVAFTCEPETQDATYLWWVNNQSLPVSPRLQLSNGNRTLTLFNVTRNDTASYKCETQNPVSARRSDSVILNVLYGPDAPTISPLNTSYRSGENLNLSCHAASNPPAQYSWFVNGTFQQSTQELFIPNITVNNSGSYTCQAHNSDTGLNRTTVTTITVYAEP
Method: as §1

human CEACAM5 on cells [1] = target: T3, human CEACAM5 on cells (human, UniProt P06731 35-685); experiment: cell-based or functional assay
T3 sequence: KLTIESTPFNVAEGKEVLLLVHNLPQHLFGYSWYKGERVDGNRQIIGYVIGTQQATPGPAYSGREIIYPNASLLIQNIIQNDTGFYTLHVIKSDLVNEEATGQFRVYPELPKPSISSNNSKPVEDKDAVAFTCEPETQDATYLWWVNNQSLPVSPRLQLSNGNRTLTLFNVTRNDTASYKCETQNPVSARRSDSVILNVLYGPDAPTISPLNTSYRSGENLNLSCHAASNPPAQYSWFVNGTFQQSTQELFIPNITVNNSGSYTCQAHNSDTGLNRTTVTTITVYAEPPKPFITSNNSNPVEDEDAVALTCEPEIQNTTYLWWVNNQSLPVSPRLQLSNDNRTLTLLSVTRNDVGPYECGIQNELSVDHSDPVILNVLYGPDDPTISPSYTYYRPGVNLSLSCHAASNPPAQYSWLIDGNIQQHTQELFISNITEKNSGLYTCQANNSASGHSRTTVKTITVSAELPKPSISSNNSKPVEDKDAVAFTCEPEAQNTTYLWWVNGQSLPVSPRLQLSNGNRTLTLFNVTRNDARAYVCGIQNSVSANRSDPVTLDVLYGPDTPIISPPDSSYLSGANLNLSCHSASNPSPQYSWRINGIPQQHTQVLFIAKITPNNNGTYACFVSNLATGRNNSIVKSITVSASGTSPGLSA

hCEACAM5 A2-B2 domain = target: T4, hCEACAM5 A2-B2 domain (human, UniProt P06731 323-500, limits assumed); experiment: SPR with hCEACAM5 domains
T4 sequence: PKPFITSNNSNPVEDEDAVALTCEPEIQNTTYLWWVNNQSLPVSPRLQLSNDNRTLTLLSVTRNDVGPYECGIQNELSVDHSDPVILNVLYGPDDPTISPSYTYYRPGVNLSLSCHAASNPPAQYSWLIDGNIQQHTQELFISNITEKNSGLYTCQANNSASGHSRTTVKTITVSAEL
Method: If the protein domain was an Fc fusion, AB0411, AB0466, AB0264, or AB0621 were captured using an anti-human Fab antibody (Cytiva, #28958325) immobilized onto a CM5 chip. The various hCEACAM5 protein domains (N-term, A1-B1, A2, B2, A3, or B3) were titrated over the captured TriNKETs at 50 μL/min for 180 sec of association and 300 sec of dissociation. The assay was run at 25° C. in HBS-EP+ running buffer, pH 7.4. The surface of the CM5 chip was regenerated using […] glycine pH 2.1.
as §1

human CEACAM5 on cells [2] = target: T3, human CEACAM5 on cells; experiment: flow cytometry, HPAF-II cells
Method: MKN-45 and HPAF-II human cancer cell lines were diluted into FACS buffer and 100,000 cells of each cell type were seeded per well in duplicate into 96-well plates for FACS staining. The cells were washed with PBS, incubated in a 1:2000 dilution of live/dead dye in PBS for 15 minutes, and then washed with FACS buffer. AB0264, AB0411, AB0466, and AB0621 were diluted into FACS buffer, and 50 μl of each diluted TriNKET was added to the cells. After incubation on ice for 30-120 minutes, the cells were washed with FACS buffer. Anti-human IgG-Fc secondary antibody was diluted into FACS buffer, and 50 μl was added per well for detection of the bound TriNKETs. The cells were incubated for 30-60 minutes on ice and then washed with FACS buffer. 50 μl of fixation buffer was added to each well and the cells were incubated for 10 minutes at room temperature. The cells were washed with FACS buffer and resuspended in FACS buffer for analysis with ThermoFisher Attune NxT, BD FACS Celesta SN #H66034400085, or BD FACS Celesta SN #H66034400160.
Cells of interest were identified using FSC vs. SSC plot and an appropriately shaped gate was drawn around the cells. Within the gated cells, doublet cells were removed by viewing FSC-H vs. FSC-A plot. Within the single cell population, live cells were gated. Within the live gate, the median fluorescence intensity (MFI) of each sample and the secondary-only control was calculated. Fold-over-background (FOB) was calculated as the ratio of test article MFI over secondary-only background MFI. Data were fit to a four-parameter non-linear regression curve using GraphPad Prism 7.0.

Binder	binding result (CEACAM5 Nterm IgV-His)	Kd (CEACAM5 N-A1-B1-His)	kon (CEACAM5 N-A1-B1-His)	EC50 (nM), NK lysis of HPAF-II (DELFIA) (human CEACAM5 on cells [1])	EC50 (nM), NK lysis of LS-174T (DELFIA) (human CEACAM5 on cells [1])	EC50 (nM), NK lysis of SK-CO-1 (DELFIA) (human CEACAM5 on cells [1])	EC50 (nM), NK lysis of ZR-75-30 (DELFIA) (human CEACAM5 on cells [1])	Max Killing (%), HPAF-II (human CEACAM5 on cells [1])	Max Killing (%), LS-174T (human CEACAM5 on cells [1])	Max Killing (%), SK-CO-1 (human CEACAM5 on cells [1])	Max Killing (%), ZR-75-30 (human CEACAM5 on cells [1])	binding result (hCEACAM5 A2-B2 domain)	EC50 (human CEACAM5 on cells [2])	Max FOB (human CEACAM5 on cells [2])	Kd (CEACAM5 Nterm IgV-His)	kon (CEACAM5 Nterm IgV-His)
AB0621 F3' CEACAM5 TriNKET (bispecific antibody, human IgG1, kappa) DIVMTQSPDSLAVSLGERATINCKSSHSLLYGNFQNNYLAWYQQKPGQPPKLLIYWASTRESGVPDRFSGSGSGTDFTLTISSLQAEDVAVYYCQQYYSYPYTFGCGTKLEIKGGGGSGGGGSGGGGSGGGGSQVQLVQSGAEVKKPGASVKVSCKASGYTFTAYTIHWVRQAPGQCLEWMGYINPSSGYTEYNQKFKDRTTLTADTSISTAYMELSRLRSDDTAVYYCTREGGLLWFDYWGQGTLVTVSSGSDKTHTCPPCPAPELLGGPSVFLFPPKPKDTLMISRTPEVTCVVVDVSHEDPEVKFNWYVDGVEVHNAKTKPREEQYNSTYRVVSVLTVLHQDWLNGKEYKCKVSNKALPAPIEKTISKAKGQPREPRVYTLPPCRDELTKNQVSLTCLVKGFYPSDIAVEWESNGQPENNYKTTPPVLVSDGSFTLYSKLTVDKSRWQQGNVFSCSVMHEALHNHYTQKSLSLSPG heavy: EVQLVESGGGLVKPGGSLRLSCAASGFTFSSYSMNWVRQAPGKGLEWVSSISSSSSYIYYADSVKGRFTISRDNAKNSLYLQMNSLRAEDTAVYYCARGAPIGAAAGWFDPWGQGTLVTVSSASTKGPSVFPLAPSSKSTSGGTAALGCLVKDYFPEPVTVSWNSGALTSGVHTFPAVLQSSGLYSLSSVVTVPSSSLGTQTYICNVNHKPSNTKVDKKVEPKSCDKTHTCPPCPAPELLGGPSVFLFPPKPKDTLMISRTPEVTCVVVDVSHEDPEVKFNWYVDGVEVHNAKTKPREEQYNSTYRVVSVLTVLHQDWLNGKEYKCKVSNKALPAPIEKTISKAKGQPREPQVCTLPPSRDELTENQVSLTCLVKGFYPSDIAVEWESNGQPENNYKTTPPVLDSDGSFFLYSWLTVDKSRWQQGNVFSCSVMHEALHNHYTQKSLSLSPG light: DIQMTQSPSSVSASVGDRVTITCRASQGISSWLAWYQQKPGKAPKLLIYAASSLQSGVPSRFSGSGSGTDFTLTISSLQPEDFATYYCQQGVSFPRTFGGGTKVEIKRTVAAPSVFIFPPSDEQLKSGTASVVCLLNNFYPREAKVQWKVDNALQSGNSQESVTEQDSKDSTYSLSSTLTLSKADYEKHKVYACEVTHQGLSSPVTKSFNRGEC	no binding	11 nM	150000 M⁻¹ s⁻¹	0.72 nM	1.87 nM	1.02 nM	1.58 nM	29.8%	42.6%	80.9%	29.8%	no binding	18.1 nM	24.9 fold over background		
AB0411 F3' CEACAM5 TriNKET (bispecific antibody, human IgG1, kappa) DIQLTQSPATLSVSPGERATLSCRASQSVSSSYLAWYQQKPGQAPRLLIYGASSRATGIPDRFSGSGSGTDFTLTISRLEPEDFAVYYCQQYNNWPLTFGCGTKVEIKGGGGSGGGGSGGGGSGGGGSQVQLVQSGGGLVQPGGSLRLSCAASGFTFTSYAMSWVRQAPGKCLEWVSAISGTGDSTFYADSVKGRFTFSRDNSKNTLYLQMNSLRAEDTAVYYCAKDLGWLQYGLFDYWGQGTLVTVSSGSDKTHTCPPCPAPELLGGPSVFLFPPKPKDTLMISRTPEVTCVVVDVSHEDPEVKFNWYVDGVEVHNAKTKPREEQYNSTYRVVSVLTVLHQDWLNGKEYKCKVSNKALPAPIEKTISKAKGQPREPRVYTLPPCRDELTKNQVSLTCLVKGFYPSDIAVEWESNGQPENNYKTTPPVLVSDGSFTLYSKLTVDKSRWQQGNVFSCSVMHEALHNHYTQKSLSLSPG heavy: EVQLVESGGGLVKPGGSLRLSCAASGFTFSSYSMNWVRQAPGKGLEWVSSISSSSSYIYYADSVKGRFTISRDNAKNSLYLQMNSLRAEDTAVYYCARGAPIGAAAGWFDPWGQGTLVTVSSASTKGPSVFPLAPSSKSTSGGTAALGCLVKDYFPEPVTVSWNSGALTSGVHTFPAVLQSSGLYSLSSVVTVPSSSLGTQTYICNVNHKPSNTKVDKKVEPKSCDKTHTCPPCPAPELLGGPSVFLFPPKPKDTLMISRTPEVTCVVVDVSHEDPEVKFNWYVDGVEVHNAKTKPREEQYNSTYRVVSVLTVLHQDWLNGKEYKCKVSNKALPAPIEKTISKAKGQPREPQVCTLPPSRDELTENQVSLTCLVKGFYPSDIAVEWESNGQPENNYKTTPPVLDSDGSFFLYSWLTVDKSRWQQGNVFSCSVMHEALHNHYTQKSLSLSPG light: DIQMTQSPSSVSASVGDRVTITCRASQGISSWLAWYQQKPGKAPKLLIYAASSLQSGVPSRFSGSGSGTDFTLTISSLQPEDFATYYCQQGVSFPRTFGGGTKVEIKRTVAAPSVFIFPPSDEQLKSGTASVVCLLNNFYPREAKVQWKVDNALQSGNSQESVTEQDSKDSTYSLSSTLTLSKADYEKHKVYACEVTHQGLSSPVTKSFNRGEC		1.2 nM	360000 M⁻¹ s⁻¹		0.32 nM	4.55 nM	0.17 nM	28.3%	28.9%	84%	25.9%	no binding	8.36 nM	54.9 fold over background	0.31 nM	1.4e+06 M⁻¹ s⁻¹
